Test results from patent publication US20050064507A1, “Determining kinase specificity” (priority 2003, published 2005).

Target: T1, PKC-delta (Homo sapiens, UniProt Q05655)
T1 construct: purchased Calbiochem
Experiment: In vitro kinase assay: peptide phosphorylation by PKC-delta
Type: biochemical
Conditions: for Measured in vitro phosphorylation by PKC-delta: peptide concentration of 10 nM, percentage of phosphorylation of the best validating peptide substrate; for phosphorylation in the in vitro validating assay: PKC-delta
Excerpt: One approach to validating a substrate identification method can involve, for example, comparison of substrate sites predicted by the method with in vitro phosphorylation results obtained using the selected kinase and peptides of known sequences. Such a systematic validation has been performed for the methods described herein. For example, a panel of seventy five peptides was synthesized, the phosphorylation observed for each peptide was experimentally measured, the amount of phosphorylation was quantified, the phosphorylation results for each peptide were normalized to the phosphorylation observed with the best substrate tested and these amounts were compared with predictions made according to the invention and according to the procedures provided by others. These peptides are referred to herein as proteomic peptides because their sequences are chosen from proteins in the human proteome; unlike the test sets employed herein, these peptides include no degenerate positions
Table 2 compares the present predictions with actual measurements of phosphorylation on validating peptides. The method of synthesis of the validating peptides was as described elsewhere in the application, and each included an N-terminal linker sequence of biotinylated-Lys-dansylated-Lys-Pro-Pro-Gly (SEQ ID NO:231). The length of the remaining “core” of the validating peptides ranged from 12-21 residues with one to five S/T residues. In vitro phosphorylation of these validating peptides was measured in the manner described herein. […] In vitro phosphorylation results for the validating peptides were expressed as normalized values, namely as a percentage of phosphorylation of the best validating peptide substrate in the group.
The conditions of the kinase assay and the amount of active kinase used varied with the kinase and with the accuracy needed. For a typical experiment, 5-20 ng of kinase was used per well and each peptide pool was assayed in duplicate wells. Note that the absolute amount of kinase used was not usually a critical parameter, because the desired information related to specificity of the kinase not its absolute activity, and robustness of the assay depends on comparisons of the same amount of kinase on different peptides. The combination of kinase concentration and assay duration was modified to assure that the stoichiometry of peptide phosphorylation never exceeded 5%. The choice of kinase buffer depended on the kinase being analyzed. For studies of PKC, 100 mM HEPES, 0.05% Triton-X100, 1 mM CaCl2, 20 mM MgCl2, 0.2 mg/ml phosphatidyl serine (Avanti Polar Lipids), PMA 100 ng/ml was typically used. The lipid stock was prepared by transferring 3 mg phosphatidyl serine into iced mixture of 450 μl water plus 50 μl of 10% Triton-X100, sonicating 10 times on ice for 1 sec each.
The kinase reaction mixture was assembled by sequential addition to a tube held on ice of: 5 μl peptide (100 μM for final concentration of 10 μM), 15 μl of kinase (typically 5 ng/well, in appropriate kinase buffer), 30 μl of ATP (1 uCi/well of ^32P-gamma ATP in a stock of 167 μM cold ATP in the kinase buffer; for final concentration for 100 μM ATP). The mixture was rapidly warmed to desired reaction temperature (30° C. for PKC) and incubated for the desired duration (usually 10 minutes). The kinase assay was terminated by transfer to 4° C. water batch, and rapid addition of an equal volume (50 μl) of stop solution [0.1M ATP+0.1M EDTA in water, pH 8].
The peptides were then captured from the reaction mixture by transfer to a Reacti-Bind Streptavidin High Binding Capacity Coated Plates (HBC) (Pierce Biotechnology) as follows. The HBC plates were pre-rinsed three times with PBS/Tween PBS/Tween20 0.05% (PBS/Tween). […]

T1 sequence (Q05655 whole entry): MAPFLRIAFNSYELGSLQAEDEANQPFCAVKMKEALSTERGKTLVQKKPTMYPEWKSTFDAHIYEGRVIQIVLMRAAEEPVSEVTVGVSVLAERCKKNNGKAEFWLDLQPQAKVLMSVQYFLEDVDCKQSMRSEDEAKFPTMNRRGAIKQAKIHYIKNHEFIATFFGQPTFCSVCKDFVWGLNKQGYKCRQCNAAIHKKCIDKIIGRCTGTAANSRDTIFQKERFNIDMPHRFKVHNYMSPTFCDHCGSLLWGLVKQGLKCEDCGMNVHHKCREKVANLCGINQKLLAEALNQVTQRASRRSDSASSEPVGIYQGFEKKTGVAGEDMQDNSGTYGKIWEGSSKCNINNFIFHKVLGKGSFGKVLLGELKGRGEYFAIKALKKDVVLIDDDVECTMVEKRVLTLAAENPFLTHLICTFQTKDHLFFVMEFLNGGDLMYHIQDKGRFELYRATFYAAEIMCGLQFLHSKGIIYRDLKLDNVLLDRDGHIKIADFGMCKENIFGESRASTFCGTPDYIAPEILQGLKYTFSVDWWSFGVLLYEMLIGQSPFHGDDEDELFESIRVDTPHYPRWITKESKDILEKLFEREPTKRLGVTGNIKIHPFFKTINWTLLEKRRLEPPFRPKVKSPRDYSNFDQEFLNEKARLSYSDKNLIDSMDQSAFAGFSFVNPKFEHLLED

Row | Substance | Measured in vitro phosphorylation by PKC-delta | phosphorylation in the in vitro validating assay
1 | 37 (AYIERMNSIHRDLRA) [compound 37] | 3% | 
2 | 67 (AINSRETMFHKERFK) [compound 67] | 1% | 
3 | 16 (DGQKRKKSLRKKLD) [compound 16] | 17% | 
4 | 65 (IKVTHKATGKVMVMK) [compound 65] | 1% | 
5 | 42 (QPEGLRSLKKPDRKKR) [compound 42] | 3% | 
6 | 71 (RRRQKRRTGALVLSRGGKR) [compound 71] | 1% | 
7 | 64 (ALRAPKPTLRYFTTERF) [compound 64] | 1% | poorly phosphorylated
8 | 74 (IDYYKKTSNGRLPVK) [compound 74] | 0% | 
9 | 46 (GQAWGRQSPRRLED) [compound 46] | 2% | 
10 | 53 (AKNLKTLQKRDSFIG) [compound 53] | 2% | 
11 | 56 (EARLGAASLKFGARD) [compound 56] | 2% | 
12 | 47 (ARIIGEKSFRRSVVG) [compound 47] | 2% | 
13 | 43 (AWVTVHEKKSSRKSEYL) [compound 43] | 3% | 
14 | 23 (QKRHARVTVKYDRRE) [compound 23] | 10% | 
15 | 73 (IDYYKKTTNGRLPVK) [compound 73] | 0% | 
16 | 60 (LRRKHLGTLNFGGIR) [compound 60] | 1% | poorly phosphorylated
17 | 41 (FVHQASFKFGQGD) [compound 41] | 3% | 
18 | 2 (KKKKRASFKRKSSKKG) [compound 2] | 76% | 
19 | 27 (KKRKKKSSKSLAHA) [compound 27] | 8% | 
20 | 70 (HERKGSDKRGDNQ) [compound 70] | 1% | 
21 | 52 (HKHSPEKRGSERKEG) [compound 52] | 2% | 
22 | 45 (VFREHQRSGSYHVRE) [compound 45] | 2% | 
23 | 26 (ALRRPSLRREADD) [compound 26] | 9% | 
24 | 28 (KRPGKKGSNKRPGKR) [compound 28] | 8% | 
25 | 3 (NRKKKRTSFKRKA) [compound 3] | 66% | 

Row | Substance | Measured in vitro phosphorylation by PKC-delta | phosphorylation in the in vitro validating assay
26 | 22 (LLKKRDSFRTPRDSKLE) [compound 22] | 12% | 
27 | 31 (RKKRKKKSSKSLAHAGVALA) [compound 31] | >5% | 
28 | 25 (EILSRRPSYRKILND) [compound 25] | 9% | 
29 | 5 (RQRKRKLSFRRRTDKD) [compound 5] | 42% | 
30 | 55 (DDMEHKTLKITDFG) [compound 55] | 2% | 
31 | 19 (AGSFKRNSIKKIV) [compound 19] | 14% | 
32 | 15 (RGFLRSASLGRRASFHLE) [compound 15] | 18% | 
33 | 21 (KLAVGRHSFSRRSGV) [compound 21] | 12% | 
34 | 38 (NYLRRRLSDSNFMAN) [compound 38] | 3% | 
35 | 10 (AQIVKRASLKRGKQ) [compound 10] | 32% | 
36 | 32 (KATTKKRTLRKNDRK) [compound 32] | >5% | 
37 | 24 (EKIKRSSLKKVDSLKK) [compound 24] | 10% | 
38 | 54 (ENLRKVTTDKKSLAY) [compound 54] | 2% | 
39 | 62 (AVRDMRQTVAVGVIK) [compound 62] | 1% | 
40 | 34 (EGGDRRASGRRK) [compound 34] | 5% | 
41 | 68 (RGEGHKPSIAHRDFK) [compound 68] | 1% | 
42 | 40 (NMEAKKLSKDRMKKY) [compound 40] | 3% | 
43 | 61 (VDNILKKSNKKLEEL) [compound 61] | 1% | 
44 | 58 (RVKLGTLRRPEGP) [compound 58] | 1% | 
45 | 69 (LALTARESSVRSGGAG) [compound 69] | 1% | poorly phosphorylated
46 | 48 (AVNSRRRAGQKKK) [compound 48] | 2% | 
47 | 35 (GLLDRKGSWKKLDDM) [compound 35] | 4% | 
48 | 14 (EYLERRASRRRAV) [compound 14] | 20% | 
49 | 13 (WKGKRRSKARKKRK) [compound 13] | 22% | 
50 | 12 (KKKKKRFSFKKSFKL) [compound 12] | 24% | 

Row | Substance | Measured in vitro phosphorylation by PKC-delta | phosphorylation in the in vitro validating assay
51 | 8 (AARKKRISVKKKQEQ) [compound 8] | 35% | 
52 | 9 (QKKSRLRRRASQLKI) [compound 9] | 34% | highly phosphorylated
53 | 51 (DLLGKKVSTKTLSEDD) [compound 51] | 2% | 
54 | 39 (LLGSGKVTDRKAL) [compound 39] | 3% | 
55 | 18 (KKRFSFKKSFKLSGFSFKKN) [compound 18] | 16% | 
56 | 36 (GENVLKKSMKSRVKG) [compound 36] | 4% | 
57 | 30 (KEVVRTDSLKGRRGR) [compound 30] | 7% | 
58 | 50 (ENLRRVATDRRHLGH) [compound 50] | 2% | 
59 | 63 (QRQERIFSKRRGQDF) [compound 63] | 1% | 
60 | 17 (AGWRKKTSFRKPKED) [compound 17] | 17% | 
61 | 7 (RKIPKRPGSVHRTPSRQ) [compound 7] | 38% | highly phosphorylated
62 | 49 (VQQLLRSSNRRLEQL) [compound 49] | 2% | 
63 | 20 (GAPPRRSSIRNAH) [compound 20] | 13% | 
64 | 59 (PVNKRSKYTMMK) [compound 59] | 1% | 
65 | 29 (RKNDRKKRYTVVGNP) [compound 29] | 8% | 
66 | 44 (VLAKKGTSKTPVPE) [compound 44] | 2% | 
67 | 6 (PRLIRRGSKKRPAR) [compound 6] | 40% | 
68 | 4 (KFARKSTRRSIRLPE) [compound 4] | 52% | highly phosphorylated
69 | 11 (KKKFRTPSFLKKSKK) [compound 11] | 25% | highly phosphorylated
70 | 66 (GFAKKIGSGQKTWTF) [compound 66] | 1% | poorly phosphorylated
71 | 1 (HVRRRRGTFKRSKLRARD) [compound 1] | 100% | 
72 | 72 (LTDPKEDPIYDEPEGLAPVPG) [compound 72] | 0% | 
73 | 57 (KNVVKLLSSRRTQDR) [compound 57] | 2% | 
